Data on two molecules can be found in US20040063913A1 (Novartis, published 2004).

Where “and” joins values, the source holds several entries; their conditions need not be identical. Equal entries are not always repeated.

Test [1] deals with T1, IL-1β derived from rhesus monkeys (rhesus monkey, UniProt P48090 117-269).
T1 construct: also called rhesus IL-1β
The experiment in a line: not named.

The target in test [2] is naturally produced IL-1β in conditioned medium from peripheral blood mononuclear cells (human, UniProt P01584 117-269, limits assumed). Description: cell-based or functional assay.
In a further test the target is T2, Rec Cynomolgus IL-1β (cynomolgus, UniProt P79182 117-268).
T2 construct: also called Rec Cynomolgus IL-β; cynomolgous IL-1beta
The experiment in a line: Biacore, ACZ885 immobilized. Background: Surface plasmon resonance follows binding to a sensor surface in real time, without labels.

A further test has as its target T3, Rec Human IL-1α (human, UniProt P01583 113-271).
T3 construct: also called human IL-1alpha
T3 sequence (looked up): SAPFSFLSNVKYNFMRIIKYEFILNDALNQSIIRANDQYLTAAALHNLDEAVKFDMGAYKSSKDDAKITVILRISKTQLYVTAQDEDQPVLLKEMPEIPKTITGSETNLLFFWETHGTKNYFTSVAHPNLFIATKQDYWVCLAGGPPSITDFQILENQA
Description: Biacore, ACZ885 immobilized.

Another test addresses T4, recombinant human IL-1β (human, UniProt P01584 117-269).
T4 construct: mature; also called Rec Human IL-1β; recombinant human IL-1beta
Description: Biacore competition: ACZ885 immobilized on the chip, recombinant human IL-1β (1 nM) injected with increasing soluble IL-1 receptor type I (0-12 nM); % binding of IL-1β to ACZ885; mean ± SEM, n=4.

Description for recombinant human IL-1β: Half-maximum values (IC₅₀) were determined graphically using the Origin 6.0 software The mean±SEM is given (n=4).

B1: ACZ 885 antibody (antibody, human IgG1, V domains shown)
VH: QVQLVESGGGVVQPGRSLRLSCAASGFTFSVYGMNWVRQAPGKGLEWVAIIWYDGDNQYYADSVKGRFTISRDNSKNTLYLQMNGLRAEDTAVYYCARDLRTGPFDYWGQGTLVTVSS
VL: EIVLTQSPDFQSVTPKEKVTITCRASQSIGSSLHWYQQKPDQSPKLLIKYASQSFSGVPSRFSGSGSGTDFTLTINSLEAEDAAAYYCHQSSSLPFTFGPGTKVDIK
notes: also called NVP-ACZ885
For the molecule B1, the binding result in test [1] is “no binding”; with Rec Cynomolgus IL-1β, “no binding (tested: 8 nM)”; with Rec Human IL-1α, “no binding (tested: 8 nM)”. Moreover, the “IC50, inhibition of IL-1β-induced IL-6 secretion from human dermal fibroblasts, cond. medium (NVP-ACZ885 Batch1)” value in test [2] is 54 pM and 9.1 ng/ml. In addition, the “IC50, inhibition of IL-1β-induced IL-6 secretion from human dermal fibroblasts, cond. medium (NVP-ACZ885 Batch2)” value in test [2] is 7.4 ng/mL.

B2: recombinant human soluble IL-1 type I receptor (receptor, UniProt P14778 18-332, looked up)
chain: LEADKCKEREEKIILVSSANEIDVRPCPLNPNEHKGTITWYKDDSKTPVSTEQASRIHQHKEKLWFVPAKVEDSGHYYCVVRNSSYCLRIKISAKFVENEPNLCYNAQAIFKQKLPVAGDGGLVCPYMEFFKNENNELPKLQWYKDCKPLLLDNIHFSGVKDRLIVMNVAEKHRGNYTCHASYTYLGKQYPITRVIEFITLEENKPTRPVIVSPANETMEVDLGSQIQLICNVTGQLSDIAYWKWNGSVIDEDDPVLGEDYYSVENPANKRRSTLITVLNISEIESRFYKHPFTCFAKNTHGIDAAYIQLIYPVT
notes: Called soluble; also called soluble human IL-1 type I receptor; recombinant human soluble receptor I
On to B2, for which, in the test with recombinant human IL-1β, the IC50 – broadly, the midpoint of a concentration-inhibition curve – stood at 0.68 nM.
